Laboratory results published in patent US20260184794A1, “ANTIBODIES AGAINST INTEGRIN ALPHA 11 BETA 1 AND USES THEREOF” (Momenta Pharmaceuticals, Inc., priority 2022, published 2026).

Tests used:
CHO-hu α11 [1] = target: T1, CHO-hu α11 (Homo sapiens, UniProt Q9UKX5); experiment: FACS antibody binding to CHO-K1 cells expressing human α11; details: Table 13, 79E3E3 variants
T1 construct: expressed in transfected cells; host or cells: CHO-K1
Description: 200,000 cells (wild-type CHO-K1 cells or CHO-K1 cells expressing human α11) were incubated with each antibody at desired concentrations in FACS buffer for 30 min at 4° C. Then, the cells were washed with FACS buffer and incubated with secondary antibody at 1:100 dilution for 30 minutes at 4° C. Cells were then washed and fixed with 1% PF A in PBS for 20 minutes at room temperature; washed again and read on a cytometer in FACS buffer.

CHO-hu α11 [2] = target: T1, CHO-hu α11; experiment: Cell adhesion inhibition on type I collagen (xCelligence); type: cell-based; details: Table 12, 16E10 variants, FIG. 5B; read-out: CHO-α11 Adhesion Inhibition IC50
Description: 0.6×10^6 cells/mL were incubated with each antibody at a range of concentrations for 20 minutes at 37° C. E-Plate VIEW 96 PET plate coated with 100 ng/ml type I collagen or PBS overnight at room temperature was blocked in 3% BSA for 1 hour at room temperature. After washing the plate with PBS, cell and antibody mixture was added to the wells and the plate was places into an xCelligence machine. Cell adhesion was recorded over 6 hours. The time point of maximum cell adhesion was used for comparison relative to control.

T1 sequence (Q9UKX5 23-1188): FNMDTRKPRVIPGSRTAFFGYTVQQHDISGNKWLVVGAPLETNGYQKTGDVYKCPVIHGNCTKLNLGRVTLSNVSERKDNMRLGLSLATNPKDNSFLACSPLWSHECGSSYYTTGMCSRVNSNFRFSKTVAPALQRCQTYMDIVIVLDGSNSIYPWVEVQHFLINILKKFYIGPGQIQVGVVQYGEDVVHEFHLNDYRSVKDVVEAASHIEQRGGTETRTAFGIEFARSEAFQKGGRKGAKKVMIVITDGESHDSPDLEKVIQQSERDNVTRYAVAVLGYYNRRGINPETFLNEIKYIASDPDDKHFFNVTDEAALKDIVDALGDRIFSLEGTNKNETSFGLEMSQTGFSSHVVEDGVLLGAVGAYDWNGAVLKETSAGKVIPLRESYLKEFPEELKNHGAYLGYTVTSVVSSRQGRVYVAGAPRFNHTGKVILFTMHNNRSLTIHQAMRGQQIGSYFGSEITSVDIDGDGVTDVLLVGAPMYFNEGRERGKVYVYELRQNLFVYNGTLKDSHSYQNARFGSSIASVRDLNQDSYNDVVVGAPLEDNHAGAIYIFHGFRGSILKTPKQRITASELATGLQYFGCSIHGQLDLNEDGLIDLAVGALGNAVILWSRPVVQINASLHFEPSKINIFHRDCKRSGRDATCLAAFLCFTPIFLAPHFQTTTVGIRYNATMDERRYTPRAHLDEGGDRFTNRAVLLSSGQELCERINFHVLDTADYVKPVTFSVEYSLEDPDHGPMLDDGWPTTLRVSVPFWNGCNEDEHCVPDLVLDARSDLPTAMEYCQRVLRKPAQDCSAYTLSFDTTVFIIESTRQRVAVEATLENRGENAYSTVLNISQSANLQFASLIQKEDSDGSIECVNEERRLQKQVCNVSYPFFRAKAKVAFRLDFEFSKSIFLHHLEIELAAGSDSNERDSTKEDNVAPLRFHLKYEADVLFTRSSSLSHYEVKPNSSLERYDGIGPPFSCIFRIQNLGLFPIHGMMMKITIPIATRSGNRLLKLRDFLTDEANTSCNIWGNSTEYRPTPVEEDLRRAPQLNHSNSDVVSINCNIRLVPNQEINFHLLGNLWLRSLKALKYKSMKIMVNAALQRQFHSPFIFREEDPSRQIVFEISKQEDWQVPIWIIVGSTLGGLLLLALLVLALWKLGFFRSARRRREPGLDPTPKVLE
T1 sequence (P05556 21-798 partner): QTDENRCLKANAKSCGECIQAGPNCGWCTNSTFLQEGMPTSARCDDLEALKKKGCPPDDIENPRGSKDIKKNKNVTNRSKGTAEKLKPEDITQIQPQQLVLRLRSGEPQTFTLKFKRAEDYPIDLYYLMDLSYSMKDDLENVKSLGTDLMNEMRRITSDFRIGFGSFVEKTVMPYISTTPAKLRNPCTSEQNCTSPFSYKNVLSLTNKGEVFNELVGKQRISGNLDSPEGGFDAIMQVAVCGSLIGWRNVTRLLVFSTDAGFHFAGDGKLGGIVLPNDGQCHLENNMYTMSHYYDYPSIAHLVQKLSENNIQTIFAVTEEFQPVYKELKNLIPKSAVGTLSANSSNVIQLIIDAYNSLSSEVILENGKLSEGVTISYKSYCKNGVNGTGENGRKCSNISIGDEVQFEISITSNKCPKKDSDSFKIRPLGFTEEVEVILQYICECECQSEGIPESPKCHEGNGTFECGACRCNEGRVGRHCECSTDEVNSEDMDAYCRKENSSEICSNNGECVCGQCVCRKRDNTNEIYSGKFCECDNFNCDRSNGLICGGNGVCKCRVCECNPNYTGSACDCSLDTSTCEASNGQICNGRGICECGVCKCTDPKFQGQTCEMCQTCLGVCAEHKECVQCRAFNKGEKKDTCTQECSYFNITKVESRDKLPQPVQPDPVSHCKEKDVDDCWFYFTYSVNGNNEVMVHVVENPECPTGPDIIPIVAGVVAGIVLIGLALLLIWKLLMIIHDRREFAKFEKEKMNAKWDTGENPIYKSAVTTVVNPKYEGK

EC50 (CHO-hu α11 [1]) [nM]	IC50 (CHO-hu α11 [2]) [nM]	Molecule
5.13		A11BB133: 79E3E3 variant; VH SEQ ID NO: 4, VL SEQ ID NO: 21 (antibody, V domains shown) VH: QIQLVQSGSELKKPGASVKVSCKASGYTFTDYAMNWVRQAPGQGLEWMGWINTQTGKPTYAQGFTGRFVFSLDTSVSTAYLQISSLKAEDTAVYYCTRLGTGNTKGFAYWGQGTLVTVSS VL: DIQITQSPSSLSASVGDRVTITCKSSQSLLYSENNQDYLAWYQQKPGKVPKLLIYGASNRHTGVPSRFSGSGSGTDFTLTISSLQPEDVATYYCEQTYRYPFTFGQGTKLEIK
2.12		A11BB143: 79E3E3 variant; VH SEQ ID NO: 15, VL SEQ ID NO: 22 (antibody, V domains shown) VH: QVQLVQSGAEVKKPGSSVKVSCKASGYTFTDYAMNWVRQAPGQGLEWMGWINTQTGKPTYAQKFQGRVTFTLDESTSTAYMELSSLRSEDTAVYYCTRLGTGNTKGFAYWGQGTLVTVSS VL: DIQMTQSPSSLSASVGDRVTITCKSSQSLLYSENNQDYLAWYQQKPGKVPKLLIYGASNRHTGVPSRFSGSGSGTDFTLTISSLQPEDVATYYCEQTYRYPFTFGQGTKLEIK
2.07		A11BB142: 79E3E3 variant; VH SEQ ID NO: 6, VL SEQ ID NO: 22 (antibody, V domains shown) VH: QIQLVQSGAEVKKPGSSVKVSCKASGYTFTDYAMNWVRQAPGQGLEWMGWINTQTGKPTYAQKFQGRVTFTLDESTSTTYMELSSLRSEDTAVYYCARLGTGNTKGFAYWGQGTLVTVSS VL: DIQMTQSPSSLSASVGDRVTITCKSSQSLLYSENNQDYLAWYQQKPGKVPKLLIYGASNRHTGVPSRFSGSGSGTDFTLTISSLQPEDVATYYCEQTYRYPFTFGQGTKLEIK
4.63		A11BB138: 79E3E3 variant; VH SEQ ID NO: 12, VL SEQ ID NO: 21 (antibody, V domains shown) VH: QIQLVQSGSELKKPGASVKISCKASGYTFTDYAMNWVRQAPGQGLEWMGWINTQTGKPTYAQGFTGRFVFSLDTSVSTAYLQISSLKAEDTAVYFCTRLGTGNTKGFAYWGQGTLVTVSS VL: DIQITQSPSSLSASVGDRVTITCKSSQSLLYSENNQDYLAWYQQKPGKVPKLLIYGASNRHTGVPSRFSGSGSGTDFTLTISSLQPEDVATYYCEQTYRYPFTFGQGTKLEIK
1.98		A11BB139: 79E3E3 variant; VH SEQ ID NO: 5, VL SEQ ID NO: 22 (antibody, V domains shown) VH: QIQLVQSGAEVKKPGSSVKVSCKASGYTFTDYAMNWVRQAPGQGLEWMGWINTQTGKPTYAQKFQGRVTFTLDESTSTAYMELSSLRSEDTAVYYCTRLGTGNTKGFAYWGQGTLVTVSS VL: DIQMTQSPSSLSASVGDRVTITCKSSQSLLYSENNQDYLAWYQQKPGKVPKLLIYGASNRHTGVPSRFSGSGSGTDFTLTISSLQPEDVATYYCEQTYRYPFTFGQGTKLEIK
1.92		A11BB136: 79E3E3 variant; VH SEQ ID NO: 14, VL SEQ ID NO: 22 (antibody, V domains shown) VH: QIQLVQSGSELKKPGASVKVSCKASGYTFTDYAMNWVRQAPGQGLEWMGWINTQTGKPTYAQGFTGRFVFSLDTSVSTAYLQISSLKAEDTAVYFCTRLGTGNTKGFAYWGQGTLVTVSS VL: DIQMTQSPSSLSASVGDRVTITCKSSQSLLYSENNQDYLAWYQQKPGKVPKLLIYGASNRHTGVPSRFSGSGSGTDFTLTISSLQPEDVATYYCEQTYRYPFTFGQGTKLEIK
2.49		A11BB131: 79E3E3 variant; VH SEQ ID NO: 11, VL SEQ ID NO: 21 (antibody, V domains shown) VH: QIQLVQSGSELKKPGASVKISCKASGYTFTDYAMNWVRQAPGQGLEWMGWINTQTGKPTYAQGFTGRFVFSLDTSVRTAYLQISSLKAEDTAVYFCTRLGTGNTKGFAYWGQGTLVTVSS VL: DIQITQSPSSLSASVGDRVTITCKSSQSLLYSENNQDYLAWYQQKPGKVPKLLIYGASNRHTGVPSRFSGSGSGTDFTLTISSLQPEDVATYYCEQTYRYPFTFGQGTKLEIK
3.49		A11BB134: 79E3E3 variant; VH SEQ ID NO: 10, VL SEQ ID NO: 22 (antibody, V domains shown) VH: QIQLVQSGSELKKPGASVKISCKASGYTFTDYAMNWVKQAPGQGLEWMGWINTQTGKPTYAQGFTGRFVFSLDTSVSTAYLQISSLKAEDTAVYFCTRLGTGNTKGFAYWGQGTLVTVSS VL: DIQMTQSPSSLSASVGDRVTITCKSSQSLLYSENNQDYLAWYQQKPGKVPKLLIYGASNRHTGVPSRFSGSGSGTDFTLTISSLQPEDVATYYCEQTYRYPFTFGQGTKLEIK
4.6		A11BB141: 79E3E3 variant; VH SEQ ID NO: 7, VL SEQ ID NO: 19 (antibody, V domains shown) VH: QIQLVQSGAEVKKPGSSVKVSCKASGYTFTDYAMNWVRQAPGQGLEWMGWINTQTGKPTYAQKFQGRVTFTLDESTSTTYMELSSLRSEDTAVYYCTRLGTGNTKGFAYWGQGTLVTVSS VL: DIQITQSPSSLSASVGDRVTITCKSSQSLLYSENNQDYLAWYQQKPGKVPKLLIYGASNRHTGVPSRFSGSGSGTDFTLTISSLQPEDVATYYCEQTYRYPFTFGQGTKLEIK
2.5		A11BB140: 79E3E3 variant; VH SEQ ID NO: 7, VL SEQ ID NO: 22 (antibody, V domains shown) VH: QIQLVQSGAEVKKPGSSVKVSCKASGYTFTDYAMNWVRQAPGQGLEWMGWINTQTGKPTYAQKFQGRVTFTLDESTSTTYMELSSLRSEDTAVYYCTRLGTGNTKGFAYWGQGTLVTVSS VL: DIQMTQSPSSLSASVGDRVTITCKSSQSLLYSENNQDYLAWYQQKPGKVPKLLIYGASNRHTGVPSRFSGSGSGTDFTLTISSLQPEDVATYYCEQTYRYPFTFGQGTKLEIK
	0.5	A11BB112: 16E10 variant; VH SEQ ID NO: 49, VL SEQ ID NO: 61 (antibody, V domains shown) VH: EVQLLESGGGLVQPGGSLRLSCAASGFSFSSSYYMCWVRQAPGKGLEWVSCIGTTRGSTYYADSVKGRFTISRDNSKNTLYLQMNSLRAEDTAVYYCARDATGYRINTIGLYFNLWGQGTLVTVSS VL: DIVMTQSPDSLAVSLGERATINCQASQTIYSYLSWYQQKPGQPPKLLIYEASKLASGVPDRFSGSGSGTDYTLTISSLQAEDVAVYYCQSYHGTASTEYNTFGGGTKVEIK
	0.5	A11BB123: 16E10 variant; VH SEQ ID NO: 47, VL SEQ ID NO: 61 (antibody, V domains shown) VH: EVQLLESGGGLVQPGGSLRLSCAASGFSFSSSYYMAWVRQAPGKGLEWVSAIGTTRGSTYYADSVKGRFTISRDSSKNTLYLQMNSLRAEDTAVYYCARDATGYRINTIGLYFNLWGQGTLVTVSS VL: DIVMTQSPDSLAVSLGERATINCQASQTIYSYLSWYQQKPGQPPKLLIYEASKLASGVPDRFSGSGSGTDYTLTISSLQAEDVAVYYCQSYHGTASTEYNTFGGGTKVEIK
	0.7	A11BB117: 16E10 variant; VH SEQ ID NO: 56, VL SEQ ID NO: 61 (antibody, V domains shown) VH: EVQLLESGGGLVQPGGSLRLSCAASGFSFSSSYYMSWVRQAPGKGLEWVSAIGTTRGSTYYADSVKGRFTISRDSSKNTVYLQMNSLRAEDTAVYFCARDATGYRINTIGLYFNLWGQGTLVTVSS VL: DIVMTQSPDSLAVSLGERATINCQASQTIYSYLSWYQQKPGQPPKLLIYEASKLASGVPDRFSGSGSGTDYTLTISSLQAEDVAVYYCQSYHGTASTEYNTFGGGTKVEIK
	0.7	A11BB119: 16E10 variant; VH SEQ ID NO: 45, VL SEQ ID NO: 61 (antibody, V domains shown) VH: EVQLLESGGGLVQPGGSLRLSCAASGFSFSSSYYMAWVRQAPGKGLEWVSAIGTTRGSTYYADSVKGRFTISRDNSKNTLYLQMNSLRAEDTAVYYCARDATGYRINTIGLYFNLWGQGTLVTVSS VL: DIVMTQSPDSLAVSLGERATINCQASQTIYSYLSWYQQKPGQPPKLLIYEASKLASGVPDRFSGSGSGTDYTLTISSLQAEDVAVYYCQSYHGTASTEYNTFGGGTKVEIK
	0.5	A11BB114: 16E10 variant; VH SEQ ID NO: 50, VL SEQ ID NO: 61 (antibody, V domains shown) VH: EVQLLESGGGLVQPGGSLRLSCAASGFSFSSSYYMCWVRQAPGKGLEWVSCIGTTRGSTYYADSVKGRFTISRDNSKNTVYLQMNSLRAEDTAVYYCARDATGYRINTIGLYFNLWGQGTLVTVSS VL: DIVMTQSPDSLAVSLGERATINCQASQTIYSYLSWYQQKPGQPPKLLIYEASKLASGVPDRFSGSGSGTDYTLTISSLQAEDVAVYYCQSYHGTASTEYNTFGGGTKVEIK
	0.5	A11BB121: 16E10 variant; VH SEQ ID NO: 53, VL SEQ ID NO: 61 (antibody, V domains shown) VH: EVQLLESGGGLVQPGGSLRLSCAASGFSFSSSYYMSWVRQAPGKGLEWVSAIGTTRGSTYYADSVKGRFTISRDNSKNTLYLQMNSLRAEDTAVYYCARDATGYRINTIGLYFNLWGQGTLVTVSS VL: DIVMTQSPDSLAVSLGERATINCQASQTIYSYLSWYQQKPGQPPKLLIYEASKLASGVPDRFSGSGSGTDYTLTISSLQAEDVAVYYCQSYHGTASTEYNTFGGGTKVEIK
